From PMC4041747, “Structural and Mutagenic Analysis of the RM Controller Protein C.Esp1396I” (PLoS ONE, 2014)

Tests used:
[1] = system: C.Esp1396I Y37A (Enterobacter sp. RFL1396?); test: SPR; conditions: SPR (Biacore T-100): 130 mM NaCl, 10 mM HEPES pH 7.4, 0.05% Tween-20; temperature not stated; 20-1000 nM total protein
[2] = system: C.Esp1396I Y37F (Enterobacter sp. RFL1396?); test: SPR; conditions: SPR (Biacore T-100): 130 mM NaCl, 10 mM HEPES pH 7.4, 0.05% Tween-20; temperature not stated; 20-1000 nM total protein
[3] = system: C.Esp1396I wild type (Enterobacter sp. RFL1396?); test: SPR; conditions: SPR (Biacore T-100): 130 mM NaCl, 10 mM HEPES pH 7.4, 0.05% Tween-20; temperature not stated; 20-1000 nM total protein
[4] = system: C.Esp1396I S52A (Enterobacter sp. RFL1396?); test: SPR; conditions: SPR (Biacore T-100): 130 mM NaCl, 10 mM HEPES pH 7.4, 0.05% Tween-20; temperature not stated; 20-1000 nM total protein
[5] = system: C.Esp1396I R46A (Enterobacter sp. RFL1396?); test: SPR; conditions: SPR (Biacore T-100): 130 mM NaCl, 10 mM HEPES pH 7.4, 0.05% Tween-20; temperature not stated; 20-1000 nM total protein
[6] = target: the molecule itself; test: crystal structure; free protein crystals, protein at 2-14 mg/mL, diffraction data at 100 K; dimer of the protein with itself

Row | Molecule | binding result [6] | further results
1 | OM operator duplex | – | Kd [1]: 5.5 nM; Kd [2]: 1.8 nM; Kd [3]: 0.51 nM; Kd [4]: 2.6 nM; Kd [5]: 15.8 nM
2 | C.Esp1396I wild type (RM controller protein) (natural protein, controller (C) protein C.Esp1396I of the Esp1396I restriction-modification system; Residues may be left at the N-terminus after thrombin cleavage; also called native protein; WT; not shown: His6, N-terminal, cleaved) MESFLLSKVSFVIKKIRLEKGMTQEDLAYKSNLDRTYISGIERNSRNLTIKSLELIMKGLEVSDVVFFEMLIKEILKHD | binds | –
3 | C.Esp1396I S52A mutant (natural protein, controller (C) protein C.Esp1396I with S52A; Gene synthesised by GenScript; not shown: His6, N-terminal, cleaved) MESFLLSKVSFVIKKIRLEKGMTQEDLAYKSNLDRTYISGIERNSRNLTIKALELIMKGLEVSDVVFFEMLIKEILKHD | binds | –
4 | C.Esp1396I Y37A mutant (natural protein, controller (C) protein C.Esp1396I with Y37A; Gene synthesised by GenScript; not shown: His6, N-terminal, cleaved) MESFLLSKVSFVIKKIRLEKGMTQEDLAYKSNLDRTAISGIERNSRNLTIKSLELIMKGLEVSDVVFFEMLIKEILKHD | binds | –
5 | C.Esp1396I Y37F mutant (natural protein, controller (C) protein C.Esp1396I with Y37F; Gene synthesised by GenScript; not shown: His6, N-terminal, cleaved) MESFLLSKVSFVIKKIRLEKGMTQEDLAYKSNLDRTFISGIERNSRNLTIKSLELIMKGLEVSDVVFFEMLIKEILKHD | binds | –
6 | C.Esp1396I T36A mutant (natural protein, controller (C) protein C.Esp1396I with T36A; not shown: His6, N-terminal, cleaved) MESFLLSKVSFVIKKIRLEKGMTQEDLAYKSNLDRAYISGIERNSRNLTIKSLELIMKGLEVSDVVFFEMLIKEILKHD | binds | –
7 | C.Esp1396I R46A mutant (natural protein, controller (C) protein C.Esp1396I with R46A; Crystallised in two space groups (C2 and P3(2)); not shown: His6, N-terminal, cleaved) MESFLLSKVSFVIKKIRLEKGMTQEDLAYKSNLDRTYISGIERNSANLTIKSLELIMKGLEVSDVVFFEMLIKEILKHD | binds | –
